Data as given in PMC9792896, “Lack of ApoE inhibits ADan amyloidosis in a mouse model of familial Danish dementia” (The Journal of Biological Chemistry, 2022).

Target: the molecule itself
Assay: thioflavin-T aggregation assay; 30 μM peptide in PBS with 20 μM Th-T, pH 7.2, 100 μl in black 96-well nonbinding plate, 37 °C, fluorescence (ex 440 nm, em 495 nm) every 15 min for 18 h; peptide alone

B1: ADan amyloid peptide (peptide)
peptide: EASNCFAIRHFENKFAVETLICFNLFLNSQEKHY
notes: 34 aa amyloid peptide released by pro-protein convertases from the familial Danish dementia (FDD) mutant form of human BRI2 (ITM2B); The first 22 residues are as in wild-type BRI2; Reconstituted in hexafluoroisopropanol (1 mg/ml, 7 days), stock in dimethyl sulfoxide, diluted in PBS; also called Danish amyloid; source: synthetic peptide (ERI Amyloid Laboratory)
  binding result: binds
